For test [1], the target named is T1, Omicron BA.2-RBD (SARS-CoV-2, UniProt P0DTC2 319-541).
T1 construct: domain: RBD
Put plainly: lateral-flow sandwich, gold-labelled IMCAS-364 as detector (Table 4).

The target of test [2] is T2, SARS-CoV-2 Delta variant RBD蛋白 (SARS-CoV-2, UniProt P0DTC2 319-541).
T2 construct: domain: RBD
Put plainly: SPR (Biacore 8K). In general terms: SPR reads the build-up and loss of mass on a sensor chip optically.

In test [3] the target is T3, Omicron BA.1-RBD (SARS-CoV-2, UniProt P0DTC2 319-541).
T3 construct: domain: RBD
Put plainly: lateral-flow sandwich, gold-labelled IMCAS-364 as detector (Table 5).

Test [4] addresses SARS-CoV-2 Beta variant RBD蛋白 (Beta型新型冠状病毒刺突蛋白受体结合域段RBD蛋白) (SARS-CoV-2, UniProt P0DTC2 319-541). Put plainly: SPR (Biacore 8K).
For test [5], the target named is SARS-CoV-2 Omicron variant RBD蛋白 (Omicron新型冠状病毒RBD蛋白) (SARS-CoV-2, UniProt P0DTC2 319-541). Put plainly: SPR (Biacore 8K).
Test [6] addresses T4, SARS-CoV-2 Alpha variant RBD蛋白 (SARS-CoV-2, UniProt P0DTC2 319-541).
T4 construct: domain: RBD
Put plainly: SPR (Biacore 8K).

One may read the Kd as the equilibrium constant for the complex coming apart. A high value points to lower affinity.

B1: IMCAS-72抗体 (全抗IgG1) (antibody, V domains shown)
VH: QVQLVESGGGLVQPGGSLRLSCAASGFTFSSYGMHWVRQAPGKGLEWVAVISYDGSDKYYADSVKGRFTISRDNSKNTLYLQMNSLRAEDTAVYYCARDRDRFGDQGGWFDPWGQGTLVTVSS
VL: not shown
notes: also called T2线抗体
As for B1, the results for the binding result in test [1] and in test [3] were “no binding (tested: IMCAS-72 0.8mg/mL on the T2 line)” and “no binding (tested: IMCAS-72 2mg/mL on the T2 line)”, respectively. This molecule returned an equilibrium dissociation constant (Kd) in test [2] of 0.62 nM.

B2: IMCAS-123抗体 (全抗IgG1) (antibody, V domains shown)
VH: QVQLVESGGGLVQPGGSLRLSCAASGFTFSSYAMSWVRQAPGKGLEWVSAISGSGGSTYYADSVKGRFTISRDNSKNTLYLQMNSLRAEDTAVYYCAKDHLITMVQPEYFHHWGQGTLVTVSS
VL: DIQMTQSPSSVSASVGDSVTITCRASQGISRWLAWYQQRPGKAPKLLIYAAGNLETGVPSRFSGSGSGTDFTLTISDLQAEDFATYYCQQADSFPLTFGGGTKVDIKR
notes: also called T1线抗体
With B2, the Kd in test [4] was found to be 0.32 nM; in test [5], 1.41 nM; in test [2], 0.48 nM; in test [6], 0.15 nM.

B3: IMCAS-364抗体 (全抗IgG1) (antibody, V domains shown)
VH: QVQLQESGGGVVQPGRSLRLSCAASGFTFSRYGMHWVRQAPGKGLEWVAVIWYDGSNKYYADSVKGRFTISRDNSKNTLYLQMNSLRADDTAVYYCAKQEGTYCSGGSCYSGLDYWGQGTLVTVSS
VL: not shown
notes: also called 金标抗体 (胶体金标记)
For B3, the Kd in test [4] was determined as 1.07 nM; in test [5], 2.19 nM; in test [6] it was 1.06 nM.

For the origin of these results see patent CN114395035A (JIANGSU MICKEE MEDICAL TECH CO LTD; INST OF MICROBIOLOGY OF …, dated 2022).
